± gives the uncertainty stated by the source.
Test: protein stability index of a GFP-peptide fusion (yeast GPS) (PSI 1-4); higher = more stable; sorted into four equal gates, so the index is relative within each strain
Method in brief: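 Each library plasmid carries Cherry plus GFP with a tiled 17-residue yeast protein peptide fused downstream, and the pooled library was carried in yeast. Mid-log cultures in leucine-free medium were sorted into four equal gates by GFP/Cherry ratio. Reads from Illumina sequencing of PCR-amplified plasmids from each gate were assigned to strains by barcodes. Per peptide, the protein stability index was computed as the summed products of gate read frequency and gate number.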

Row | Sequence | protein stability index (doa10∆) | protein stability index (pdr5∆) | protein stability index (san1∆) | protein stability index (ubr1∆)
1 | NRLLPNLPEEERKQIHE [GRR1] | 1.26 ± 0.14 | 1.41 ± 0.079 | 1.71 ± 0.15 | 2.59 ± 0.13
2 | SKRLPLRFPEHTSSGSV [BRR2] | 2.9 ± 0.096 | 2.97 ± 0.083 | 2.74 ± 0.14 | 2.34 ± 0.065
3 | IHLYMLTFHTLKKANII [YLR018C/POM34] | 1.31 ± 0.051 | 1.27 ± 0.06 | 1.21 ± 0.12 | 1.09 ± 0.042
4 | VNIPSFMVRLDSEKHID [RPS9A] | 2.62 ± 0.081 | 2.64 ± 0.051 | 2.48 ± 0.059 | 2.2 ± 0.052
5 | KVDINADSAVNRQTLMF [PRP28] | 3.32 ± 0.06 | 3.32 ± 0.072 | 3.08 ± 0.055 | 3.17 ± 0.052
6 | DNLLEMSDHSLDKLNCA [RRP6] | 3.28 ± 0.099 | 3 ± 0.068 | 3.22 ± 0.1 | 3.25 ± 0.049
7 | ANLPANSSTSPAPSIPS [YLR335W/NUP2] | 2.94 ± 0.037 | 3.1 ± 0.037 | 2.95 ± 0.03 | 2.856 ± 0.027
8 | DRTQDRADVEDESNDID [RPC37] | 3.33 ± 0.087 | 3.52 ± 0.092 | 3.13 ± 0.11 | 3.4 ± 0.073
9 | NVYVGMTDMQIQWYKSL [ISW2] | 1.96 ± 0.057 | 2.41 ± 0.059 | 1.99 ± 0.072 | 3.14 ± 0.069
10 | KSNGLAPEIPEDLYYLI [RPS13] | 2.65 ± 0.081 | 2.83 ± 0.13 | 2.45 ± 0.11 | 2.4 ± 0.14
11 | HTATDIYQTLIALNLDT [SNF2] | 2.11 ± 0.032 | 2.36 ± 0.034 | 1.88 ± 0.046 | 1.93 ± 0.024
12 | VPPPPVRPSISFNESQR [RPO21] | 2.47 ± 0.037 | 2.78 ± 0.036 | 2.62 ± 0.039 | 2.45 ± 0.034
13 | MAKQLIRLANESSELNK [CSN12] | 3 ± 0.08 | 2.62 ± 0.064 | 2.96 ± 0.079 | 2.63 ± 0.073
14 | KQTADWLAEKFQKETNM [PRP28] | 2.57 ± 0.2 | 3.12 ± 0.14 | 3.43 ± 0.091 | 3.16 ± 0.21
15 | NCPHSDSTQLLETILEE [SSN2] | 2.81 ± 0.1 | 3.1 ± 0.088 | 3.11 ± 0.13 | 2.94 ± 0.063
16 | NDSKEESTTEATGNESQ [YLR335W/NUP2] |  | 3.14 ± 0.18 | 2.97 ± 0.22 | 3.35 ± 0.1
17 | TGKVSEFISIYSNSHQM [RET1] | 2.83 ± 0.092 | 2.44 ± 0.12 | 3.03 ± 0.11 | 2.72 ± 0.073
18 | CLEACSFILSSLEDPQV [YDL116W/NUP84] | 2.68 ± 0.048 | 2.71 ± 0.054 | 2.87 ± 0.038 | 2.75 ± 0.042
19 | CNSIINKLGALKTNFET [RPB11] | 2.57 ± 0.089 | 2.42 ± 0.099 | 2.68 ± 0.088 | 3.05 ± 0.17
20 | ILNAKYTKETYQSRGID [RPN6] | 2.96 ± 0.062 | 3.04 ± 0.066 | 2.97 ± 0.06 | 2.8 ± 0.056
21 | ISKRKEELEEEFRKKLK [YIL149C/MLP2] | 3.49 ± 0.11 | 3.35 ± 0.1 | 3.06 ± 0.089 | 3.67 ± 0.11
22 | SGDESNVISSKDWELEA [YDL116W/NUP84] | 3.45 ± 0.08 | 3.36 ± 0.052 | 3.45 ± 0.06 | 3.41 ± 0.066
23 | DISAMQPVNPKPFLKGL [SMX3] | 3.12 ± 0.067 | 3.18 ± 0.068 | 3.2 ± 0.051 | 3.22 ± 0.053
24 | PSQGMVVEISNGNTSSK [FAS1] | 3.08 ± 0.057 | 3.27 ± 0.051 | 3.2 ± 0.048 | 3.29 ± 0.056
25 | AKGLVAYHQKYVDEQSK [RPS16A] | 2.03 ± 0.085 | 2.12 ± 0.056 | 2.52 ± 0.089 | 1.11 ± 0.034
26 | IEKFEQVPDSLDDQIFV [RPN6] | 3.31 ± 0.079 | 3.35 ± 0.065 | 3.53 ± 0.053 | 3.27 ± 0.079

Row | Sequence | protein stability index (doa10∆) | protein stability index (pdr5∆) | protein stability index (san1∆) | protein stability index (ubr1∆)
27 | AYAQVEIQPRANIQLDF [FAS2] | 3.17 ± 0.061 | 3.06 ± 0.066 | 3.08 ± 0.057 | 3.16 ± 0.049
28 | VATNIVNEDPIFHPMIH [YML103C/NUP188] | 2.53 ± 0.046 | 2.63 ± 0.045 | 2.44 ± 0.045 | 2.58 ± 0.038
29 | QDNKQLYQIWIVMVWLK [YDL116W/NUP84] | 2.62 ± 0.058 | 2.62 ± 0.049 | 3.02 ± 0.065 | 2.78 ± 0.031
30 | QTDAIKSDEAKWKPVLS [RPN5] | 2.62 ± 0.14 | 2.99 ± 0.19 | 3.27 ± 0.075 | 3.2 ± 0.16
31 | PIMQTQMPLNSNGGNNM [SNF2] | 3 ± 0.059 | 2.92 ± 0.06 | 2.84 ± 0.057 | 2.62 ± 0.045
32 | YQVEYAFKATNQTNINS [SCL1] | 2.97 ± 0.072 | 3.19 ± 0.056 | 2.99 ± 0.081 | 3.06 ± 0.073
33 | NYKGLPKKYKENNTDSA [SMC1] | 3.32 ± 0.07 | 3.31 ± 0.085 | 3.28 ± 0.045 | 3.36 ± 0.061
34 | KLYTFLARRTDAPFNKV [RPL18A] | 1.78 ± 0.052 | 1.65 ± 0.042 | 1.97 ± 0.079 | 1.89 ± 0.068
35 | KYNAFIASEVLIKQVPR [RPL1A] | 1.73 ± 0.085 | 1.57 ± 0.06 | 1.39 ± 0.15 | 1.66 ± 0.045
36 | IDLLTFQYGSRLPTFLK [RPP1] | 1.89 ± 0.064 | 1.84 ± 0.052 | 1.6 ± 0.081 | 1.57 ± 0.047
37 | LNHILEKSTQLQQKHEL [YGR119C/NUP57] | 2.52 ± 0.054 | 2.91 ± 0.042 | 2.66 ± 0.034 | 2.82 ± 0.035
38 | DIVPYFLKHNGEEDAVD [RPN1] | 3.26 ± 0.12 | 3.27 ± 0.18 | 2.95 ± 0.17 | 3.22 ± 0.094
39 | TESIALSSMRFKPSQEP [RRI1] | 2.85 ± 0.072 | 3.31 ± 0.064 | 3.3 ± 0.076 | 2.86 ± 0.057
40 | RIFAIAFTRKQANQVKR [RPS1A] | 1.59 ± 0.018 | 1.66 ± 0.019 | 1.99 ± 0.031 | 1.98 ± 0.02
41 | LVELMFIRSTNSWFDVT [FAS1] | 1.65 ± 0.092 | 1.98 ± 0.072 | 1.72 ± 0.2 | 1.51 ± 0.044
42 | KALLFFNNEKETEKFAL [RPN12] | 3.25 ± 0.084 | 3.03 ± 0.12 | 3.31 ± 0.059 | 3.17 ± 0.083
43 | AIACYSGYNQEDSMIMN [RPB2] | 2.65 ± 0.084 | 1.75 ± 0.072 | 2.67 ± 0.098 | 2.39 ± 0.12
44 | KEKWPSLELQSFQKIPL [YML103C/NUP188] | 2.27 ± 0.1 | 2.62 ± 0.12 | 2.03 ± 0.11 | 2.73 ± 0.11
45 | DVIAWKNVLANSIWGSS [ITC1] | 2.83 ± 0.14 | 2.95 ± 0.088 | 3.49 ± 0.12 | 3.28 ± 0.072
46 | PHGISVFLSNLVETCLN [BRR2] | 1.39 ± 0.043 | 1.57 ± 0.035 | 1.48 ± 0.07 | 1.61 ± 0.03
47 | LQYYILEYMNTARINNR [RRI2] | 2.12 ± 0.15 | 1.37 ± 0.097 | 1.96 ± 0.14 | 1.93 ± 0.12
48 | LNLQFKAKVDDLVLGKP [YLR335W/NUP2] | 2.85 ± 0.11 | 3.39 ± 0.18 | 3.34 ± 0.067 | 3.3 ± 0.078
49 | DITSDQLLQRLNDMNTE [SMC3] | 3.46 ± 0.16 |  | 3.24 ± 0.13 | 3.17 ± 0.12
50 | LLGKDNEDDALIYGISD [AAR2] | 3.22 ± 0.12 | 3.14 ± 0.14 | 3.11 ± 0.1 | 2.7 ± 0.14
51 | FDNVASVFMPLIFIACN [ECM29] | 2.9 ± 0.048 | 2.72 ± 0.038 | 2.57 ± 0.045 | 2.71 ± 0.032

Source: the supplement of paper PMC9732359
